B1: homologous peptide from pro-TGF-β2 (SGD in place of RGD) (peptide)
chain: YTSGDQKTI
B2: soluble αVβ6 headpiece (complex)
chain 1: FNLDVDSPAEYSGPEGSYFGFAVDFFVPSASSRMFLLVGAPKANTTQPGIVEGGQVLKCDWSSTRRCQPIEFDATGNRDYAKDDPLEFKSHQWFGASVRSKQDKILACAPLYHWRTEMKQEREPVGTCFLQDGTKTVEYAPCRSQDIDADGQGFCQGGFSIDFTKADRVLLGGPGSFYWQGQLISDQVAEIVSKYDPNVYSIKYNNQLATRTAQAIFDDSYLGYSVAVGDFNGDGIDDFVSGVPRAARTLGMVYIYDGKNMSSLYNFTGEQMAAYFGFSVAATDINGDDYADVFIGAPLFMDRGSDGKLQEVGQVSVSLQRASGDFQTTKLNGFEVFARFGSAIAPLGDLDQDGFNDIAIAAPYGGEDKKGIVYIFNGRSTGLNAVPSQILEGQWAARSCPPSFGYSMKGATDIDKNGYPDLIVGAFGVDRAILYRARPVITVNAGLEVYPSILNQDNKTCSLPGTALKVSCFNVRFCLKADGKGVLPRKLNFQVELLLDKLKQKGAIRRALFLYSRSPSHSKNMTISRGGLMQCEELIAYLRDESEFRDKLTPITIFMEYRLDYRTAADTTGLQPILNQFTPANISRQAHILLDTGGLEVLFQ
chain 2: HVQGGCALGGAETCEDCLLIGPQCAWCAQENFTHPSGVGERCDTPANLLAKGCQLNFIENPVSQVEILKNKPLSVGRQKNSSDIVQIAPQSLILKLRPGGAQTLQVHVRQTEDYPVDLYYLMDLSASMDDDLNTIKELGSRLSKEMSKLTSNFRLGFGSFVEKPVSPFVKTTPEEIANPCSSIPYFCLPTFGFKHILPLTNDAERFNEIVKNQKISANIDTPEGGFDAIMQAAVCKEKIGWRNDSLHLLVFVSDADSHFGMDSKLAGIVCPNDGLCHLDSKNEYSMSTVLEYPTIGQLIDKLVQNNVLLIFAVTQEQVHLYENYAKLIPGATVGLLQKDSGNILQLIISAYEELRSEVELEVLGDTEGLNLSFTAICNNGTLFQHQKKCSHMKVGDTASFSVTVNIPHCERRSRHIIIKPVGLGDALELLVSPECNCDCQKEVEVNSSKCHHGNGSFQCGVCACHPGHMGPRCESRGLQTLFQ
B3: FITC–pro-TGF-β3 peptide (FITC-aminohexanoic-GRGDLGRL) (peptide)
peptide: {FITC-Ahx}-GRGDLGRL

Common to all, as to assay: fluorescence polarisation
In the test “soluble αVβ6 headpiece” the target is B2.
Test [1] has as its target nonapeptide containing RGD from pro-TGF-β3.
The target of a further test is soluble αVβ3 headpiece (human, UniProt P06756 31-624; P05106 27-498, M400C | Q267C).

No end group written: not given here. *: point of attachment. FITC = O=C1OC2(c3ccc(O)cc3Oc3cc(O)ccc32)c2ccc(NC(=S)*)cc21; Ahx = NCCCCCC(=O)O

Sequence of soluble αVβ3 headpiece (P05106 27-498 Q293C, one chain of several): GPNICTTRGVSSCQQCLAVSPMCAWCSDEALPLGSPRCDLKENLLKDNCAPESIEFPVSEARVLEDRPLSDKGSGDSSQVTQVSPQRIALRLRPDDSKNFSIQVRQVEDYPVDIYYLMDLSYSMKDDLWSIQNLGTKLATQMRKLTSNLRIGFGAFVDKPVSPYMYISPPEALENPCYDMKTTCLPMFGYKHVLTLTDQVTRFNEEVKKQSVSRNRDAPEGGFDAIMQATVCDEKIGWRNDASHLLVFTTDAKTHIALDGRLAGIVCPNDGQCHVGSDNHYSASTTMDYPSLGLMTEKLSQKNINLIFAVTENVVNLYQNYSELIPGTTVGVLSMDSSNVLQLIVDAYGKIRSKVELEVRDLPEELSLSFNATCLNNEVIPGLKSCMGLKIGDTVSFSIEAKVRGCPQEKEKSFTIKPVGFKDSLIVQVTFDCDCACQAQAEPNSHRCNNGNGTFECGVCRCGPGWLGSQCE

Consider B1, for which binding with soluble αVβ6 headpiece was characterised by a dissociation constant (Kd) of 8.5 µM.
In the case of B2, the Kd in test [1] was determined as 0.0085 µM.
Turning to B3, the binding result with soluble αVβ3 headpiece was “binds”.

The values above are taken from PMC4717663 (Nature structural & molecular biology, 2014).
